{"source": "patent US20210261685A1", "about": "(Alector, published 2021)", "binders": {"B1": {"name": "MTK-35 (antibody, human IgG1, V domains shown)", "VH": "QVLLQQSGPELVKPGASVQLSCKASDYTFTSYDIHWVKQRPGQGLEWIGWIYPRDGYTKYNEIFKGKATLTVDTSSTTAYMELHSLTSEDSAVYFCARAYYTNWYYFDYWGQGTTLTVSS", "VL": "EIVLTQSPTTMAASPGEKITITCRASSSISSHYLHWYQQKPGFSPKLLIYRTSNLASGVPARFSGSGSGTSYSLTIGTMEAEDVATYYCQQGSTIPLTFGAGTKLVLK"}, "B2": {"name": "MTK-19 (antibody, human IgG1, V domains shown)", "VH": "EVQLQQSGPELVKPGASVKISCKTSGYTFTEYTMHWVKQSHGKSLEWLGGFNPNNVITSYNQRFQGRATLTVDKSSSTAYMELRSLTSDDSAVYYCTRGDLLWSLLLPGNYFDYWGQGTTLTVSS", "VL": "not shown"}, "B3": {"name": "MTK-33 (antibody, human IgG1, V domains shown)", "VH": "QVQLQQPGPELVRPGTSVKLSCKASGYTFTSYWMHWIKQRPGQGLEWIGVIDPSDNYINYNQKFKGKATLTVDTSSSTAYLQLSSLTSEDSAVYYCAREAGTRGYFDYWGQGTTLTVSS", "VL": "SIVMTQTPKFLLVSAGDRVIITCKASQSVSNTVAWYQQKPGQSPKLLIYYASNRYTGVPDRFTGSGYGTDFTFTISTVQAEDLAVYFCQQDYRSPFTFGSGTQLEMK"}, "B4": {"name": "MTK-11 (antibody, human IgG1, V domains shown)", "VH": "QVQLKQSGPGLVQPSQSLSITCTVSGFSLTDYGVHWVRQSPGKGLEWLGVIWSSGTTDYNEAFISRLSISKDNSKSHVFFKMNSLQAIDTAIYYCARKGHDPYAMDYWGQGTSVTVSS", "VL": "QIVLTQSPAIMSASLGERVTMTCTASSSISSSYFHWYQQKPGSSPKLWIYSTSNLPSGVPARFSGSGSGTSYSLTISSMEAEDAATYYCHQYYRSPLTFGAGTKLELK"}, "B5": {"name": "MTK-01 (antibody, human IgG1, V domains shown)", "VH": "QIQLVQSGPELKKPGETVKISCKASGYTFTNYGMNWVKQAPGKGLKCMGWINTYTGEPTYADDFKGRFAFSLETSATTAYLQINNLKNEDTATYFCARRDRYTWFAYWGQGTLVTVSA", "VL": "QIVLSQSPAILSASPGEKVTMTCRASSSVSYMHWYQQKPGSSPKPWIYATSNLASGVPARFSGSGSGTSYSLTISRVEAEDAATYYCQQWSSNPPTFGGGTKLEIK"}, "B6": {"name": "MTK-29 (antibody, human IgG1, V domains shown)", "VH": "QIQLVQSGPELKKPGETVKISCKSSGFTFTTYGMSWVKQAPGKGLKWMGWINTYSGVPTYTDDFKGRFAFSLETSASTASLQINNLKNEDTATYFCARYTNYGYFDYWGQGTTLTVSS", "VL": "B5 VL with S26T, S30G, D81H, S91G, P95F, G99S"}, "B7": {"name": "MTK-36 (antibody, human IgG1, V domains shown)", "VH": "QVTLKESGPGILQPSQTLSLTCSFSGFSLSTFGMGVGWIRQPSGKGLEWLAHIWWYDDKYYEPALKSRLTISKDSSKNQVFLKIANVDTADTATYYCARIYYGTSYRYFDVWGTGTTVTVSS", "VL": "B5 VL with S14F, S26T, S30R, S51Y, A54T, Q88H, P95Y"}, "B8": {"name": "MTK-15 (antibody, human IgG1, V domains shown)", "VH": "QIQLVQSGPELKKPGETVKISCKASGYTFTNYGVHWVKQAPGKGLKWMGWINTYTGEPTYADDFKGRFAFSLETSASTAYLQINNLKNEDMATYFCARGNRYAYMDYWGQGTSVTVSS", "VL": "B5 VL with P39S, P95R"}, "B9": {"name": "MTK-03 (antibody, human IgG1, V domains shown)", "VH": "DVQLQESGPGLVKPSQSLSLTCSVTGYSITSGYYWNWIRQFPGNTLEWMGYMSFDGDNKFNPSLKNRISITRDTSKNQFFLRLNSVTTEDTATYYCARGGYNYGSTEANWGQGTLVTVSA", "VL": "QIVLTQSPAIMSAFPGEKVTITCSASSSVNYMHWFQQKPGTSPKLWIYSTSNLASGVPARFSGSGSGTSYSLTISRMEAEDAATYYCQQRSSYPFTFGSGTKLEIK"}, "B10": {"name": "MTK-17 (antibody, human IgG1, V domains shown)", "VH": "QIQLVQSGPELKKPGETVKISCKASGYTFTNFGMNWVKQAPGKGLKWMGWINTYTGEPTYADDFKGRFAFSLETSASTAYLQINNLKNEDTATYFCSRGAVLRAGAMDCWGQGTSVTVSS", "VL": "DIQMTQSSSYLSVSLGGRVTITCKASDHINNWLAWYQQKPGNAPRLLISGATSLETGVPSRFSGSGSGKDYTLSITSLQTEDVATYYCQQYWSTPRTFGGGTKLEIK"}, "B11": {"name": "MTK-05 (antibody, human IgG1, V domains shown)", "VH": "QVQLQQSGAELVQPGTSVRLSCKTSGYTFTSYWIQWVKQRPGQGLGWIGEIFPGTGTTYYNEKFKGKATLTIDTSSSTAYMQLSSLTSEDSAVYFCARDGAYFDVWGAGTTVTVSS", "VL": "DIQMTQSPASLSASVGETVTFTCRASENIFSYLAWYQQKQGKSPQLLVYNAKTLAEGVPSRFSGSGSGTHFSLKINSLQPEDFGSYYCLHHYGTPLTFGAGTKLELK"}, "B12": {"name": "MTK-20 (antibody, human IgG1, V domains shown)", "VH": "QIQLVQSGPELKKPGETVKISCKASGYTFTNYGMTWVKQAPGKGLKWMGWINTYTGEPTYADDFKGRFALSLETSASTAYLQINNLKNEDTATYFCARGGGRLGLRPLDYWGQGTTLTVSS", "VL": "DIQMTQTTSSLSASLGDRVTISCRASQDINNYLNWYQQKPDGTVKLLIYYTSRLHSGVPSRFSGSGSGTDYSLTISNLEQEDIATYFCQQGNTLPWTFGGGTKLEIK"}, "B13": {"name": "MTK-18 (antibody, human IgG1, V domains shown)", "VH": "B12 VH with N31H, L70F, R102Q", "VL": "B12 VL with I21F, D28A, N30S"}}, "note": "Positions count from the first letter of the chain named."}
{"biological_target": "T1, Recombinant human MerTK human Fc Chimera protein (R&D systems, Cat #391-MR-100) (human, UniProt Q12866 26-499, limits assumed)", "T1 construct": "Bought; also called recombinant human MerTK protein; MerTK-Fc", "T1 sequence": "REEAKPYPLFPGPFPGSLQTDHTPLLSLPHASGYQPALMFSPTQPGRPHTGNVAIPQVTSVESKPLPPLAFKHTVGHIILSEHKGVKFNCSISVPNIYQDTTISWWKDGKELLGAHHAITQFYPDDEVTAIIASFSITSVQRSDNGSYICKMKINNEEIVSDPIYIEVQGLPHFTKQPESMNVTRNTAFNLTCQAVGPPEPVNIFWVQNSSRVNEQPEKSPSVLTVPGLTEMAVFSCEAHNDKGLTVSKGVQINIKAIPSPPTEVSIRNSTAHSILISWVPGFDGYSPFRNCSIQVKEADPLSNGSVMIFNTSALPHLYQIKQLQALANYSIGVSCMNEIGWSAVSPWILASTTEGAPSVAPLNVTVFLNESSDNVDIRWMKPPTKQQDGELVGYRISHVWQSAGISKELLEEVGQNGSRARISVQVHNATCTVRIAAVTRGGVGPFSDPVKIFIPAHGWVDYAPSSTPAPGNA", "test": "competition ELISA, His-ProS on captured MerTK-Fc", "method_in_brief": "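Blocking IC50 (nM) comes from OD450 curves after TMB development of bound His-tagged ligand detected by HRP-anti-His. Ligand (His-Gas6 at 3 μg/ml, or His-ProS at 20 μg/ml) and titrated antibody (66.6 nM to 4 pM final) were incubated 1 h on MerTK-Fc (2 μg/ml) held by an anti-human IgG capture antibody.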", "units": {"IC50": "nM"}}
{"binder": "B1", "IC50": 0.924}
{"binder": "B2", "IC50": 11.3}
{"binder": "B3", "IC50": 0.601}
{"binder": "B4", "IC50": 24.2}
{"binder": "B5", "IC50": 2.85}
{"binder": "B6", "IC50": 2.66}
{"binder": "B7", "IC50": 1.4}
{"binder": "B8", "IC50": 4.2}
{"binder": "B9", "IC50": 3.65}
{"binder": "B10", "IC50": 8.35}
{"binder": "B11", "IC50": 6.51}
{"binder": "B12", "IC50": 5.16}
{"binder": "B13", "IC50": 4.76}
{"biological_target": "T1, Recombinant human MerTK human Fc …", "test": "competition ELISA, His-Gas6 on captured MerTK-Fc", "protocol": "Rabbit anti-human IgG polyclonal antibody (Jackson ImmunoResearch, Cat #309-005-008) was captured to a high-protein binding plate at 2 μg/ml 4° C. overnight. After washing with 0.05% Tween20 in PBS three times, 5% BSA in PBS was added for 1 hour. Recombinant human MerTK human Fc Chimera protein (R&D systems, Cat #391-MR-100) was added at 2 μg/ml for 1 hour and the plates were then washed. Anti-MerTK antibodies were titrated to final concentration range of between 66.6 nM to 4 pM and then 40 μl of serially diluted antibody and 40 μl of His tag-conjugated recombinant Gas6 protein (R&D systems, Cat #885-GSB-050) at 3 μg/ml or His tag-conjugated recombinant ProS protein (R&D systems, Cat #9489-PS-100) at 20 μg/ml. After a further incubation for 1 hour, plates were washed and incubated for 1 hour with HRP-conjugated anti-6×His tag antibody (Abcam, Cat #ab1187). Plates were then washed and an HRP substrate (TMB) was used to develop the plates. After sufficient color change was observed, the reaction was stopped by adding 50 μl 2N H₂SO₄ and the OD was measured using a spectrophotometer (BioTek).\nFrom these experiments, IC50 values [nM] were determined using OD450 values obtained from the dose-response curves analyzed with Prism software. Table 14 and Table 15 show IC50 values determined for anti-MerTK antibody blocking of Gas6 ligand binding and ProS ligand binding to MerTK. […] Dashes indicate lack of significant blocking; “n.a.” indicates data not available.", "units": {"IC50": "nM"}}
{"binder": "B1", "IC50": 0.31}
{"binder": "B7", "IC50": 0.29}
{"binder": "B9", "IC50": 8.53}
{"binder": "B10", "IC50": 14.5}
{"binder": "B12", "IC50": 4.96}
{"binder": "B13", "IC50": 4.22}
{"biological_target": "T2, human MerTK endogenously expressed on cells (SK-MEL-5 cells; human macrophages) (human, UniProt Q12866 21-999)", "T2 sequence": "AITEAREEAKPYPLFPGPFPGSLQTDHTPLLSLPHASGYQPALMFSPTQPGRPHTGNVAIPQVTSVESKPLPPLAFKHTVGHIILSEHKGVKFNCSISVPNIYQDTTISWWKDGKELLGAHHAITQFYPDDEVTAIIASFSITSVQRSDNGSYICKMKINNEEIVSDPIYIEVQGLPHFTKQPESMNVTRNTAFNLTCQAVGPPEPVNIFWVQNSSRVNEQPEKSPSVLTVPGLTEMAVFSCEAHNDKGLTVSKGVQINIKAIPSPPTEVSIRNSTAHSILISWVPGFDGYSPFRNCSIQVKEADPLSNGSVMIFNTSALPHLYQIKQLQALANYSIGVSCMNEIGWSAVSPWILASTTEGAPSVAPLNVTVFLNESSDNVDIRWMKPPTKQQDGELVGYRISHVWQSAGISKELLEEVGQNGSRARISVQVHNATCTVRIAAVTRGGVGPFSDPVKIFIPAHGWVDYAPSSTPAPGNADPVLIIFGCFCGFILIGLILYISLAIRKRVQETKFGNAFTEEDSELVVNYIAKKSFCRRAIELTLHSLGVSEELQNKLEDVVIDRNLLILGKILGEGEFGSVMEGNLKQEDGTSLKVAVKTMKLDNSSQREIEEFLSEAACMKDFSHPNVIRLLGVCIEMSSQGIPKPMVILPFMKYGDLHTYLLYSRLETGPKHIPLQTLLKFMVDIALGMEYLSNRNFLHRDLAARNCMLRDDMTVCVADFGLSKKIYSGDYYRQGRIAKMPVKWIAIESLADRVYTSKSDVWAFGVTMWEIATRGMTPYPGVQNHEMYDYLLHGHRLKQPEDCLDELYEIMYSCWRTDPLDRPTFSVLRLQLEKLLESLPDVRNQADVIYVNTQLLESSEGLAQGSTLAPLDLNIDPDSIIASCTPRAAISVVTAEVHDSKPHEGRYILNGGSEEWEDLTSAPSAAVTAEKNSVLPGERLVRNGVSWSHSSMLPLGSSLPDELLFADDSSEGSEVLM", "test": "cell-based or functional assay"}
{"binder": "B2", "Gas6-mediated pAKT activity, average IC50, human M2c macrophages": "0.902 nM"}
{"binder": "B3", "Gas6-mediated pAKT activity, average IC50, human M2c macrophages": "4.28 nM"}
{"binder": "B4", "Gas6-mediated pAKT activity, average IC50, human M2c macrophages": "2.63 nM"}
{"binder": "B5", "Gas6-mediated pAKT activity, average IC50, human M2c macrophages": "1.28 nM"}
{"binder": "B6", "Gas6-mediated pAKT activity, average IC50, human M2c macrophages": "5.37 nM"}
{"binder": "B8", "Gas6-mediated pAKT activity, average IC50, human M2c macrophages": "2.8 nM"}
{"binder": "B9", "Gas6-mediated pAKT activity, average IC50, human M2c macrophages": "19 pM"}
{"binder": "B10", "Gas6-mediated pAKT activity, average IC50, human M2c macrophages": "3.42 nM"}
{"binder": "B11", "Gas6-mediated pAKT activity, average IC50, human M2c macrophages": "0.246 nM"}
{"binder": "B12", "Gas6-mediated pAKT activity, average IC50, human M2c macrophages": "1.48 nM"}
{"binder": "B13", "Gas6-mediated pAKT activity, average IC50, human M2c macrophages": "1.3 nM"}
